Laboratory results: PMC9958480, “Structural insights into the recognition of telomeric variant repeat TTGGGG by broad-complex, tramtrack and bric-à-brac - zinc finger protein ZBTB10”

Molecular target: T1, ZBTB10 ZF1-2 R767Q (human, UniProt Q96DT7 713-779, R767Q)
T1 sequence: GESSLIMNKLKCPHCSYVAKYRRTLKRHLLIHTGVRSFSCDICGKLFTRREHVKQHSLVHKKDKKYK
Test: X-ray crystallography; Zn2+; 1.9 A, P1; ITC at 20 C, ~30 uM dsDNA in cell, ~300 uM protein in syringe; proteins dialyzed in 20 mM Tris-HCl pH 7.5, 150 mM NaCl (ITC buffer not separately stated)
Details: protein: recombinant; tags: MBP removed by PreScission; 5' overhang 1 nt on each strand (T and A)

B1: TTAGGG crystal duplex (dsDNA)
DNA 1: TTAGGGTTATA
DNA 2: ATATAACCCTA
Does B1 bind?
Result: binds
